Measurements as given in patent publication US20240400689A1 (ANTENGENE BIOLOGICS, published 2024).

T1: mouse CD276 protein (mouse, UniProt Q8VE98 29-316)
T1 construct: whole, on cells; also called mCD276; CHO-S-mCD276
T1 sequence (looked up): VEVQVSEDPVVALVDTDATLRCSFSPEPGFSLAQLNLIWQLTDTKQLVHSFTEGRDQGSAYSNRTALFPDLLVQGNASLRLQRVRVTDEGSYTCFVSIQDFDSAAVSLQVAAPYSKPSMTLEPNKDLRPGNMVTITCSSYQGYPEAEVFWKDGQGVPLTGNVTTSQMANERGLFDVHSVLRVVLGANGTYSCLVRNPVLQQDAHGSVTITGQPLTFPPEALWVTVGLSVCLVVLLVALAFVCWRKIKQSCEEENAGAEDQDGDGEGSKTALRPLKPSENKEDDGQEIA

T2: human CD276 protein (human, UniProt Q5ZPR3 29-534)
T2 construct: whole, on cells; for SKOV3 and the other cancer lines the protein is the cells' own; also called B7-H3; B7H3
T2 sequence (looked up): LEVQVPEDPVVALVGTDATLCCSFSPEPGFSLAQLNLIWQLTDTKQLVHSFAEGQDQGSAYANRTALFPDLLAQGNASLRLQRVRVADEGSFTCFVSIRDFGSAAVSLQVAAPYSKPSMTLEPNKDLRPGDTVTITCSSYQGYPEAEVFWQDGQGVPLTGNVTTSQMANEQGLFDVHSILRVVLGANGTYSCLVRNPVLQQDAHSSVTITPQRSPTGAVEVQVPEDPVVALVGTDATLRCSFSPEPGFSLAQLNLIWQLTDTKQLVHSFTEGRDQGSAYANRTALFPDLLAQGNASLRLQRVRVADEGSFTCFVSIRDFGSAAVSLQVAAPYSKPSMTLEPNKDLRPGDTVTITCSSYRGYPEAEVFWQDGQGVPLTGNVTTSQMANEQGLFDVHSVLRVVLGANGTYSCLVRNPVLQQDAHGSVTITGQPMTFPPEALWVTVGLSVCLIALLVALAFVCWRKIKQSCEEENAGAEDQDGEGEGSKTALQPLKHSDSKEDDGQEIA


Assays:
[1] = biological target: T3, Macaca fascicularis CD276 (Macaca fascicularis); test: FACS on CHO-S-cynoCD276 cells
T3 construct: whole, on cells; also called cynomolgus monkey CD276; cynoCD276
Protocol: (§1) Screening & Expansion—The subcloning plates were screened by protein or cell-based Elisa, and the subclones with good binding ability were expanded to 24-wells for confirmation tests. The specificity and cross-reactivity of these subclones were confirmed with FACS analysis. Briefly, parental CHO-S cells, CHO-S-hCD276, CHO-S cell line stably over-expressing Macaca fascicularis CD276, CHO-K1 S, cell line stably over-expressing mouse CD276 were incubated with antibodies produced by each subclone respectively. Fluorescent dye-conjugated secondary antibody was used to detect the binding of the primary antibody with the cells. Median fluorescence intensity was measured by FACS analysis.

[2] = biological target: T1, mouse CD276 protein; test: FACS on CHO-S-mCD276 cells
Protocol: as §1

[3] = biological target: T2, human CD276 protein; test: FACS on CHO-S-hCD276 cells
Protocol: as §1

| Binder | FACS MFI [1] | FACS MFI [2] | FACS MFI [3] |
| --- | --- | --- | --- |
| 6-F3-G2-G1 (antibody, V domains shown, mouse monoclonal antibody (hybridoma)) VH: QVQLQQPGAELVKPGASVKLSCKASDYTFTNYWMHWVKQRPGQGLEWIGMIHPNSGTTSYNEKFKNKATLTVDTSSATTYMHLSSLTSEDSAVYYCASHYGNSYSAMDYWGQGTSVTVSS VL: QAVVTQESALTTSPGGTVILTCRSSTGAVTTSNYANWVQEKPDHLFTGLIGGTSNRAPGVPVRFSGSLIGDKAALTITGAQTEDDAMYFCALWYSTHYVFGGGTKVTVL | 114000 | 6980 | 37400 |
| 3-G7-D8-D3 (antibody, V domains shown, mouse monoclonal antibody (hybridoma)) VH: QVQLQQSGAELARPGTSVKLSCKASGYTFTTYWIQWVKQRPGQGLEWIGAIYPGDGDTRYTQKFKGKATLTADKSSSTAYMQLSTLASEDSAVYYCARPYDGYYIDYPMDSWGQGTSVTVSS VL: QIVLTQSPAIMSASPGEKVTMTCSASSRINYMHWYQQKPGTSPIIWIYDTSKLASGVPARFSGSGSGTSYSLTISSMEAEDAATYYCHQRSSYPFTFGSGTKLEIK | 6420 | 1290 | 82400 |
| 6-H11-G5-D8 (antibody, V domains shown, mouse monoclonal antibody (hybridoma)) VH: EVQLQESGPELVKPGTSVKLSCKASGYTFTSYDINWVRQRPEQGLEWIGWIFPGNGDTYYNEKFKGKATLTSDKSSSTAYMQLSRLTSEDSAVYFCARDLRLGTFDYWGQGTTLTVSS VL: QIVLTQSPEIMSASPGEKVTMTCSASSSVSYIHWYQQKSGTSPKRWIYDTSKLASGVPARFSGSGSGTSYSLTIRSMEAEDAATYYCQQGSSNPRTFGGGTKLELK | 30400 | 1360 | 113000 |
| 7-E1-F8-F6 (antibody, V domains shown, mouse monoclonal antibody (hybridoma)) VH: QVQLQQSGPELVKPGASVQMSCKASGYTFTDYVISWVNQRTGQGLEWIGEIYPRSGNTYYNEKFKGKATLTADKSSNTAYMQLSSLTSEDSAVYFCARFDIAYSFDYWGQGTTLTVSS VL: DVVMTQTPLSLPVSLGDQASISCRSTQSLVHSNGVTYLHWYLQKPGQSPKLLIYKVSNRFSGVPDRFSGSGSGTDFTLKISRVEAEDLGVYFCSQGTHVPWTFGGGTKLEIK | 5590 | 1310 | 6990 |
| 9-E8-F9-C10 (antibody, V domains shown, mouse monoclonal antibody (hybridoma)) VH: EVQLQQSGAELVRPGTSVKISCKASGYAFSDYWLSWVKQRPGHGLEWIGDICPGSGNIYYNERFKDKVILTADRSSSTAYLQFSSLTSEDSVVYFCTRLITRVIDYWGQGTSVTVST VL: ENVLTQSPAIMSASPGEKVTMTCSASSSVNYMHWYQQKSSTSPKLWIYDTSKLSSGVPGRFSGSGSGNSYSLTISSMEAEDVATYYCFQGSGYPLTFGAGTKLELK | 5700 | 1950 | 7610 |
| 3-C2-C3-E7 (antibody, V domains shown, mouse monoclonal antibody (hybridoma)) VH: EVQLQQSGPELVKPGASVKISCKTSGYTFTENTMHWVKQSHGKRLEWIGGINPNTGGTTYNQKFKGKATLTVDKSSSTAYMELRSLTSEDSAVYYCARRGTNWEHWYFDVWGAGTTVTVSS VL: QIVLTQSPAIMSASPGEKVTMTCSASSSVSYMHWYQQKSGTSPKRWIYDTSKLASGVPARFSGSGSGTSYSLTISSMEAEDAATYYCQQWSSNPLTFGAGTKLELK | 2110 | 2770 | 38800 |
| 9-G2-H6-E4 (antibody, V domains shown, mouse monoclonal antibody (hybridoma)) VH: EVQLQQSGPDLVKPGASVKISCKASGYSFTGYFMNWVKQRHGKSLEWIGYINPNNGDTIYNQKFKGKATLTVDKSSSTAHMELLSLTSEDSAVYYCGRGGLPFGALDYWGQGTSVTVSS VL: DIVMSQSPSSLAVSVGEKVNMSCKSSQSLLYSRNQKNYLAWNQQKPGQSPKLLIYWASARESGVPDRFTGSGSGTDFTLTISSVKAEDLAAYYCQQYHSYPYTFGGGTKLELK | 5400 | 27600 | 49600 |
| 2-A7-B10-A3 (antibody, V domains shown, mouse monoclonal antibody (hybridoma)) VH: QVQLQQSGAELVRPGVSVKISCKGSGYTFTDYAMHWVKQSHAKSLEWIGVINTNYVNTSYNQKFKGKATMTVDKSSSTAFMELARLTSEDSAIYYCARGGKYGNYVFFFAYWGQGTLVTVSA VL: DIQMTQTTSSLSASLGDRVTISCRASQDISNYLNWYQQKPDGTVKLLIYYTSRLHSGVPSRFSGSGSGTDYSLTISNLEQEDIATYFCQQGNTLPYTFGGGTKLEIK | 56000 | 2040 | 58900 |

Other lines, results leading:

| FACS MFI [1] | FACS MFI [2] | FACS MFI [3] | Binder |
| --- | --- | --- | --- |
| 95800 | 6200 | 54100 | 13-A8-C4-G1 (antibody, V domains shown, mouse monoclonal antibody (hybridoma)) VH: QVQLQQPGAELVKPGASMKLSCKASGYIFTSNWMHWVKQRPGQGLEWIGMIHPNSGTTSYNEKFKNKAKLTVDKSSSTAYVQLSSLTSEDSAVYYCAGPTTTRRFYPMDYWGQGTSVTVSS VL: QAVVTQESALTTSPGETVTLTCRSSTGAVTTSNYANWVQEKPDHLFTGLIGGTNNRAPGVPARFSGSLIGDKAALTITGAQTEDEAIYFCALWYSNHFIFGSGTKVTVL |
| 43000 | 5730 | 36600 | 15-C8-B5-G7 (antibody, V domains shown, mouse monoclonal antibody (hybridoma)) VH: QVQLQQPGAELVKPGASVKLSCKASDYTFTSHWMHWVKQRPGQGLEWIGMIHPNSGTTHYNENFKNKATLTVDNSSSTAYMQLSSLTSEDSAVYYCAWGSSNSYFYAMAYWGQGTSVTVSS VL: QAVVTQESALTTSPGETVTLTCRSSTGAVTTSNYANWVQEKPAHLFTGLIGGTNNRAPGVPARFSGSLIGDKAALTITGAQTEDEAIYFCALWFSNHLVFGGGTKLTVL |
| 61800 | 1300 | 78100 | 14-E7-G9-D4 (antibody, V domains shown, mouse monoclonal antibody (hybridoma)) VH: EVQLQQSGPELVKPGASVKMSCKASGYTFTNYIMHWVKQKPGQGLEWIGYINPYNDGIKYNEKFKGKATLTSDKSSSTAYMELSSLTSEDSAVYYCTRWGNYVFYYTMDYWGQGTSVTVSS VL: QIVLSQSPAILSASPGEKVTMTCRASSSVSYMHWYQQKPGSSPKPWIYATSNLASGVPARFSGSGSGTSYSLTISRMEAEDAATYYCQQWSGNPPLTFGAGTKLELK |
| 40800 | 2080 | 56300 | 28-G2-E6-B10 (antibody, V domains shown, mouse monoclonal antibody (hybridoma)) VH: QVQLQQPGAELVKPGASVKLSCKASGYTFTSYWMHWVKQRPGQGLEWIGMIHPNSDTTDYNEKFKTKATLTVDKSSSTAYMQLSSLTSEDSAVFYCARGGLGPHYFVYWGQGTTLTVSS VL: QAVVTQESALTTSPGGTVILTCRSSTGAVTTSNYASWVQEKPDHLFTGLIGGTSNRAPGVPVRFSGSLIGDKAALTITGAQTEDDAMYFCALWYSPHYVFGGGTKVTVL |
| 80500 | 1350 | 16000 | 27-F8-E10-E11 (antibody, V domains shown, mouse monoclonal antibody (hybridoma)) VH: EVQLQQSGPELVKPGASVKISCKTSGYTFTEYAMHWVKQSHGKILEWIGGINPNIGGTTYNQKFKDKATLTVDKSSSTASMELRSLTSEDSAVYYCARFLVPSTEGFTYWGQGTLVTVSA VL: QIVLTQSPAIMSASPGEKVTMTCSASSSVSYMHWYQQKSGTSPKRWIYDTSRVASGVPARFSGSGSGTSYSLTISSMEAEDAATYYCQQWSSNPLTFGAGTKLELK |
| 5390 | 1370 | 5940 | 25-D3-G4-C6 (antibody, V domains shown, mouse monoclonal antibody (hybridoma)) VH: EIQLQQTGPELVKPGASVKISCKASGYSFTDYIILWVKQSHGMSLEWIGNINPYYNSTYYNLKFKGKATLTVDKSSSTAYMQLDSLTSEDSAVYYCARDSFDWYFGVWGAGTTVTVSS VL: DVVMTQTPLSLPVSLGDQASISCRSSQSLVHSNGNTYLHWYLQKPGQSPKLLIYKVSNRFSGVPDRFSGSGSGTDFTLKISRVETEDLGIYFCSQSTHVPPLTFGAGTKLELK |
| 87900 | 1590 | 94700 | 27-E7-D8-C7 (antibody, V domains shown, mouse monoclonal antibody (hybridoma)) VH: EVQLQESGPELVRPGVSVKISCKGSGYTFTDYAMHWVKQSHAKSLEWIGVINTYSDNTNYNRKFKGKATMTVDKSSSTAYMELARLTSEDSAIYYCARGLLLRSQLGVYFDYWGQGTTLTVSS VL: QIVLSQSPAILSASPGEKVTMTCRASSSVSYMHWYQQKPGSSPKPWIYATSNLASGVPARFSGSGSGTSYSLTISRVEAEDAATYYCQQWSSNPWTFGGGTKLEIK |
| 83500 | 20600 | 127000 | 18-F9-D8-G7 (antibody, V domains shown, mouse monoclonal antibody (hybridoma)) VH: EVQLQQSGPELVRPGVSVKISCKGSGYTFTDYAMHWVKQSHAQSLEWIGIINTYSGDTNYNQKFKGKATMTVDKSSSTAYMGLARLTSEDSAIFYCARGGGNYPYWYFDVWGAGTTVTVSS VL: ENVLTQSPAIMSASPGEKVTMTCRASSSVSSSYLHWYQQKSGDSPKLWIYSTSNLASGVPARFSGSGSGTSYSLTISSVEAEDAATYYCQQFSVYPLTFGAGTKLEIK |
